Data set [1] deals with the molecule itself. Put plainly: crystal structure; apo-AstC without PLP; space group R32:h, 2 molecules in the asymmetric unit, 2.75 Å; grown in 1.4 M sodium malonate pH 7 at 20 °C; dimers formed by crystallographic symmetry.
Data set [2] concerns the molecule itself. As to the kind of experiment: dynamic light scattering; in solution; hydrodynamic radius mean value 4.5 nm, about 100 kDa; data not shown.

B1: apo-AstC, N-succinylornithine transaminase from Escherichia coli, without PLP (enzyme, E. coli (BL21 DE3), UniProt P77581 1-406, looked up)
chain: MSQPITRENFDEWMIPVYAPAPFIPVRGEGSRLWDQQGKEYIDFAGGIAVNALGHAHPELREALNEQASKFWHTGNGYTNEPVLRLAKKLIDATFADRVFFCNSGAEANEAALKLARKFAHDRYGSHKSGIVAFKNAFHGRTLFTVSAGGQPAYSQDFAPLPADIRHAAYNDINSASALIDDSTCAVIVEPIQGEGGVVPASNAFLQGLRELCNRHNALLIFDEVQTGVGRTGELYAYMHYGVTPDLLTTAKALGGGFPVGALLATEECARVMTVGTHGTTYGGNPLASAVAGKVLELINTPEMLNGVKQRHDWFVERLNTINHRYGLFSEVRGLGLLIGCVLNADYAGQAKQISQEAAKAGVMVLIAGGNVVRFAPALNVSEEEVTTGLDRFAAACEHFVSRGSS
notes: AstC (acetyl/succinylornithine aminotransferase) of E. coli; native, untagged protein, no plasmid or clone used; electron density from Gln3 to Ser402, the last 4 residues (Arg-Gly-Ser-Ser) not modelled, which implies 406 residues; Endogenous protein of strain BL21 (DE3); also called apo-protein; apo-enzyme; source: endogenous, E. coli BL21 (DE3) grown in 2xYT, purified (Ni-NTA, size exclusion …)
Consider B1, for which the binding result in data set [1] was “binds”.

B2: holo-AstC, N-succinylornithine transaminase from Escherichia coli reconstituted with PLP (enzyme, E. coli (BL21 DE3), UniProt P77581 1-406, looked up)
chain: MSQPITRENFDEWMIPVYAPAPFIPVRGEGSRLWDQQGKEYIDFAGGIAVNALGHAHPELREALNEQASKFWHTGNGYTNEPVLRLAKKLIDATFADRVFFCNSGAEANEAALKLARKFAHDRYGSHKSGIVAFKNAFHGRTLFTVSAGGQPAYSQDFAPLPADIRHAAYNDINSASALIDDSTCAVIVEPIQGEGGVVPASNAFLQGLRELCNRHNALLIFDEVQTGVGRTGELYAYMHYGVTPDLLTTAKALGGGFPVGALLATEECARVMTVGTHGTTYGGNPLASAVAGKVLELINTPEMLNGVKQRHDWFVERLNTINHRYGLFSEVRGLGLLIGCVLNADYAGQAKQISQEAAKAGVMVLIAGGNVVRFAPALNVSEEEVTTGLDRFAAACEHFVSRGSS
modifications: PLP bound to Lys252 in a Schiff base (aldimine)
notes: AstC (acetyl/succinylornithine aminotransferase) of E. coli; native, untagged protein, no plasmid or clone used; the last 4 residues (Arg-Gly-Ser-Ser) after Ser402 not modelled, which implies 406 residues; Same polypeptide as m1, with the cofactor PLP added; Endogenous protein of strain BL21 (DE3); also called holo-enzyme; PLP/enzyme complex; source: endogenous, E. coli BL21 (DE3), purified …
Take B2: in data set [2], the stoichiometry N (in general, a count of units in the complex or per binding partner) is 2.
